Assays:
[1] = target: T1, natural Fel d1 (Indoor Biotech, #NA-FD1-2) (cat, UniProt P30438 23-92; P30440 18-109); experiment: Octet BLI sandwich; nFel d1 pre-complexed with captured mAb-1 H4H2864P (competitor); self-competition value subtracted
T1 construct: Bought natural heterodimeric glycoprotein, chains linked by disulfide bonds; also called nFel d1; nFel d 1

[2] = target: T1, natural Fel d1 (Indoor Biotech, …); experiment: SPR (Biacore), mAb captured, natural Fel d1 injected, 25 C;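 also: rate constants obtained by fitting association and dissociation phases to a one-to-one binding model, with Kd and half-life derived from those rate constants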
[3] = target: T1, natural Fel d1 (Indoor Biotech, …); experiment: Octet BLI sandwich; nFel d1 pre-complexed with captured mAb-1 H4H2636P (competitor); self-competition value subtracted
[4] = target: T1, natural Fel d1 (Indoor Biotech, …); experiment: Octet BLI sandwich; nFel d1 pre-complexed with captured mAb-1 H4H1616N (competitor); self-competition value subtracted
[5] = target: T1, natural Fel d1 (Indoor Biotech, …); experiment: Octet BLI, mAb captured on anti-hFc tip, 500 nM nFel d1
[6] = target: T1, natural Fel d1 (Indoor Biotech, …); experiment: Octet BLI sandwich; nFel d1 pre-complexed with captured mAb-1 H4H1238N (competitor); self-competition value subtracted
[7] = target: T1, natural Fel d1 (Indoor Biotech, …); experiment: Octet BLI sandwich; nFel d1 pre-complexed with captured mAb-1 H4H2645P (competitor); self-competition value subtracted
[8] = target: T1, natural Fel d1 (Indoor Biotech, …); experiment: Octet BLI sandwich; nFel d1 pre-complexed with captured mAb-1 H4H1232N (competitor); self-competition value subtracted
[9] = target: T1, natural Fel d1 (Indoor Biotech, …); experiment: Octet BLI sandwich; nFel d1 pre-complexed with captured mAb-1 H4H2597P (competitor); self-competition value subtracted
[10] = target: T1, natural Fel d1 (Indoor Biotech, …); experiment: Octet BLI sandwich; captured mAb-1 H4H1300N, which did not pre-complex with nFel d1; self-competition value subtracted

T1 sequence (P30438 other isoform, or with tags, fused parts or gaps, chain 1 of 2): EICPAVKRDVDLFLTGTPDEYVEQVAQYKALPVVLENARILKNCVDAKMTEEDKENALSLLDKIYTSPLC
T1 sequence (P30440 18-109, chain 2 of 2): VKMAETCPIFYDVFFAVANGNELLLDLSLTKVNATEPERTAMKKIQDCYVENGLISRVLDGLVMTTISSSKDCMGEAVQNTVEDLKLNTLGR

| Binder | Response of mAb-2 Binding to nFel d1 pre-complexed with mAb-1 [1] | Kd [2] | koff [2] | kon [2] | t1/2 [2] | Response of mAb-2 Binding to nFel d1 pre-complexed with mAb-1 [3] | Response of mAb-2 Binding to nFel d1 pre-complexed with mAb-1 [4] | Amount of 500 nM nFel d1 Bound [5] | Response of mAb-2 Binding to nFel d1 pre-complexed with mAb-1 [6] | Response of mAb-2 Binding to nFel d1 pre-complexed with mAb-1 [7] | Response of mAb-2 Binding to nFel d1 pre-complexed with mAb-1 [8] | Response of mAb-2 Binding to nFel d1 pre-complexed with mAb-1 [9] | Response of mAb-2 Binding to nFel d1 pre-complexed with mAb-1 [10] |
| --- | --- | --- | --- | --- | --- | --- | --- | --- | --- | --- | --- | --- | --- |
| H4H1616N (antibody, human IgG4, V domains shown, human IgG4 Fc (H4H prefix)) VH: EVELLESGGGLVQPGGSLRLSCAASGFTFSSYAMSWVRQAPGKGLEWVSSISGRVGSTHFADSVKGRFTFSRDNSKNTLYLQLSSLRAEDTAVYYCARSRGAAYFDYWGQGTLVTVSS VL: DIQMTQSPSSLSASVGDRVTITCQANQDISNFLNWYQQRPGKAPNLLIYAASNLETGVPSRFSGSGSGTDFTFTISSLQPEDIATYYCQHYDNFPFTFGPGTKVDIK | 0.01 nm | 5140 pM | 0.00124 s⁻¹ | 241000 M⁻¹ s⁻¹ | 9 min | 0.01 nm | 0 nm | 0.09 nm | 0.43 nm | 0.01 nm | 0.54 nm | 0.4 nm | 0.06 nm |
| H4H2645P (antibody, human IgG4, V domains shown, human IgG4 Fc (H4H prefix)) VH: EVQLVESGGGLVQPGGSLRLSCAASGFTFSTYAMHWVRQAPGKGLEWVSSISGRGRNSDHADSVKGRFTISRDNSKNTLYLQMNSLRAEDTAVYYCARTEYFHHWGQGTLVTVSS VL: DIQMTQSPSSLSASVGDRITITCRASQDINNYLAWFQQKPGKAPKSLIYGASSLQSGVPSKFSGSGSGTDFTLTISSLQPEDFATYYCQQYSSYPFTFGPGTKVDIK | -0.01 nm | 459 pM | 0.000261 s⁻¹ | 569000 M⁻¹ s⁻¹ | 44 min | 0 nm | -0.01 nm | 0.1 nm | 0.62 nm | 0 nm | 0.75 nm | 0.55 nm | 0.05 nm |
| H4H2864P (antibody, human IgG4, V domains shown, human IgG4 Fc (H4H prefix)) VH: EVQLVESGGGLAQPGGSLRLSCAASGFTFNNYAMTWVRQAPGKGLDWVSAISDSGRSTFSADSVKGRFTISRDNSKNTLYLQMDSLRAEDTALYYCAKHRNWNYPVFDYWGQGTLVTVSS VL: DIQLTQSPSFLSASVGDRVTITCWASQGISSYLAWYQQKPGKAPKLLIYSASTLQSGVPSRFSGSGSGTEFTLTISSLQPEDFATYYCQQLNSYPFTFGPGTKVDIK | 0 nm | 801 pM | 0.00135 s⁻¹ | 1.68e+06 M⁻¹ s⁻¹ | 9 min | 0 nm | -0.01 nm | 0.08 nm | 0.62 nm | -0.01 nm | 0.71 nm | 0.54 nm | 0.06 nm |

Reference: patent US20220025029A1 (Regeneron, published 2022)
